The record followed here is patent publication US20130309248A1.

The target of assay [1] is full-length recombinant H7 HA (A/Netherlands/219/2003) on PER.C6 cells (influenza A virus (H7N7)). Description: FACS, IgG 5 µg/ml, HA-expressing PER.C6 cells; untransfected MFI 4. (Flow cytometry measures light scatter and fluorescence of single cells or particles in a stream.)
Assay [2] deals with full-length recombinant H1 HA (A/New Caledonia/20/1999) on PER.C6 cells (influenza A virus (H1N1)). The description is as above.
Assay [3] has as its target full-length recombinant H3 HA (A/Wisconsin/67/2005) on PER.C6 cells (influenza A virus (H3N2)). The description is as above.
The target of assay [4] is H3 HA antigen (A/Brisbane/10/2007) (influenza A virus (H3)). Description: BLI (Octet RED), biotinylated HA on streptavidin sensor, 1:1 model. A general note: BLI is a label-free optical method that tracks binding on a fibre tip over time.
Assay [5] addresses recombinant H3 HA (A/Wisconsin/67/2005) (influenza A virus (H3N2)). The assay is described as above.

As to CR8020 (antibody), the results for the MFI in assay [1], in assay [2] and in assay [3] were 140 MFI, 3 MFI and 657 MFI, respectively.

Turning to CR8043 (antibody), the MFI amounted to 11 MFI in assay [1], 4 MFI in assay [2] and 646 MFI in assay [3].

In assay [4], Fab fragment of CR8020 had a Kd of 8.9 nM, a koff of 0.00143 s⁻¹ and a kon of 181000 M⁻¹ s⁻¹. Also, in assay [5], the Kd turned out to be 11.2 nM, the koff came to 0.00208 s⁻¹ and the kon was 203000 M⁻¹ s⁻¹.

In assay [4], Fab fragment of CR8043 had a Kd of 0.3 nM, a koff of 8.69e-05 s⁻¹ and a kon of 312000 M⁻¹ s⁻¹. In addition, in assay [5], the Kd is 0.3 nM, the koff amounted to 9.86e-05 s⁻¹ and the kon was determined as 408000 M⁻¹ s⁻¹.

For orientation: Kd means the constant that tells how readily two partners part at equilibrium. A word on the koff: it is the rate constant with which the complex falls apart. What is called kon is the second-order rate constant of association.
